Test [1] has as its target T1, CD3 (human, UniProt P07766 23-207).
T1 construct: whole, on cells; CD3 is a multi-chain complex; also called CD3 on T-cells; CD3 on Jurkat (CD3+) T cell leukemia cells
The test can be described thus: flow cytometry on Jurkat (CD3+) cells, goat anti-human IgG-FITC detection. The method, then:
Jurkat (CD3⁺) T cell leukemia cells were obtained from ATCC (Manassas, Va.), and cultured according to the protocol provided by ATCC. Binding was assessed by incubating 5×10⁵ Jurkat cells for 30 minutes at 4° C. with serially diluted bispecific molecules TSC228 or TSC249, in concentrations from 250 nM to 0.125 nM (TSC249) or 125 nM to 1 pM (TSC228). The cells were washed three times and then incubated with goat anti-human IgG-FITC (1:200 dilution) for another 30 minutes at 4° C. The cells were then washed again three times, fixed in 1% paraformaldehyde and read on a FACS-Calibur instrument.
On the technique in general: A flow cytometer gives signals particle by particle.

Test [2] deals with T1, CD3. Description: cell-based or functional assay.

Here are results for 3 molecules from US20150232557A1 (APTEVO RESEARCH AND DEVELOPMENT, published 2015).

T1 sequence (P07766 23-207): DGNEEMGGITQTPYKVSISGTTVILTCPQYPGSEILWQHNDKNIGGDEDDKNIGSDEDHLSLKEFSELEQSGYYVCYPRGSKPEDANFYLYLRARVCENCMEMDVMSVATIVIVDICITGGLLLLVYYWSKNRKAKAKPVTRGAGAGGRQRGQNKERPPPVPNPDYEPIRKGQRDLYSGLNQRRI

B1: humanized TSC249 Scorpion (huVL-VH#2 107-1A4 scFv-Fc-DRA222 scFv) (bispecific antibody)
chain: DIQMTQSPSAMSASVGDRVTITCRASKSISKYLAWFQQKPGKVPKLRIHSGSTLQSGVPSRFSGSGSGTEFTLTISSLQPEDFATYYCQQHIEYPWTFGQGTKVEIKRGGGGSGGGGSGGGGSQVQLVQSGAEVKKPGASVKVSCKASGYTFTDYYMHWVRQAPGQGLEWMGYFNPYNDYTRYAQKFQGRVTMTRDTSISTAYMELSSLRSDDTAVYYCARSDGYYDAMDYWGQGTTVTVSSSEPKSSDKTHTCPPCPAPEAAGAPSVFLFPPKPKDTLMISRTPEVTCVVVDVSHEDPEVKFNWYVDGVEVHNAKTKPREEQYNSTYRVVSVLTVLHQDWLNGKAYACAVSNKALPAPIEKTISKAKGQPREPQVYTLPPSRDELTKNQVSLTCLVKGFYPSDIAVEWESNGQPENNYKTTPPVLDSDGSFFLYSKLTVDKSRWQQGNVFSCSVMHEALHNHYTQKSLSLSPGQRHNNSSLNTGTQMAGHSPNSQVQLVESGGGVVQPGRSLRLSCKASGYTFTRSTMHWVRQAPGQGLEWIGYINPSSAYTNYNQKFKDRFTISADKSKSTAFLQMDSLRPEDTGVYFCARPQVHYDYNGFPYWGQGTPVTVSSGGGGSGGGGSGGGGSAQDIQMTQSPSSLSASVGDRVTMTCSASSSVSYMNWYQQKPGKAPKRWIYDSSKLASGVPARFSGSGSGTDYTLTISSLQPEDFATYYCQQWSRNPPTFGGGTKLQITSSS
notes: also called anti-PSMA x anti-CD3 bispecific polypeptide homodimer
As usually defined, the EC50 is the concentration that produces a half-maximal response. In the test with CD3 [1], B1 returned a concentration giving a half-maximal response (EC50) of 1900 pM. In addition, the “EC50 for RTCC” value in the test with CD3 [2] was 2.9 pM.

B2: TSC228 (HD37 x DRA222 scFv heterodimer) (bispecific antibody)
chain 1: DIVLTQSPASLAVSLGQRATISCKASQSVDYDGDSYLNWYQQIPGQPPKLLIYDASNLVSGIPPRFSGSGSGTDFTLNIHPVEKVDAATYHCQQSTEDPWTFGGGTKLEIKGGGGSGGGGSGGGGASQVQLQQSGAELVRPGSSVKISCKASGYAFSSYWMNWVKQRPGQGLEWIGQIWPGDGDTNYNGKFKGKATLTADESSSTAYMQLSSLASEDSAVYFCARRETTTVGRYYYAMDYWGQGTSVTVSSSEPKSSDKTHTCPPCPAPEAAGAPSVFLFPPKPKDTLMISRTPEVTCVVVDVSHEDPEVKFNWYVDGVEVHNAKTKPREEQYNSTYRVVSVLTVLHQDWLNGKAYACAVSNKALPAPIEKTISKAKGQPREPQVYTLPPSRDELTKNQVSLTCLVKGFYPSDIAVEWESNGQPENNYKTTPPVLDSDGSFFLYSKLTVDKSRWQQGNVFSCSVMHEALHNHYTQKSLSLSPGKSRASTKGPSVFPLAPSSKSTSGGTAALGCLVKDYFPEPVTVSWNSGALTSGVHTFPAVLQSSGLYSLSSVVTVPSSSLGTQTYICNVNHKPSNTKVDKKV
chain 2: QVQLVESGGGVVQPGRSLRLSCKASGYTFTRSTMHWVRQAPGQGLEWIGYINPSSAYTNYNQKFKDRFTISADKSKSTAFLQMDSLRPEDTGVYFCARPQVHYDYNGFPYWGQGTPVTVSSGGGGSGGGGSGGGGSAQDIQMTQSPSSLSASVGDRVTMTCSASSSVSYMNWYQQKPGKAPKRWIYDSSKLASGVPARFSGSGSGTDYTLTISSLQPEDFATYYCQQWSRNPPTFGGGTKLQITSSSEPKSSDKTHTCPPCPAPEAAGAPSVFLFPPKPKDTLMISRTPEVTCVVVDVSHEDPEVKFNWYVDGVEVHNAKTKPREEQYNSTYRVVSVLTVLHQDWLNGKAYACAVSNKALPAPIEKTISKAKGQPREPQVYTLPPSRDELTKNQVSLTCLVKGFYPSDIAVEWESNGQPENNYKTTPPVLDSDGSFFLYSKLTVDKSRWQQGNVFSCSVMHEALHNHYTQKSLSLSPGKSRTVAAPSVFIFPPSDEQLKSGTASVVCLLNYFYPREAKVQWKVDNALQSGNSQESATEQDSKDSTYSLSSELTLSKADYEKHKVYACEVTHQGLSSPVTKSFNRGE
notes: TSC049 is HD37 scFv-hinge-CH2-CH3-CH1; TSC222 is DRA222 scFv-hinge-CH2-CH3-CK(YAE); also called anti-CD19 x anti-CD3 bispecific polypeptide heterodimer; TSC049 + TSC222
In the case of B2, in the test with CD3 [1], the concentration for a half-maximal effect (EC50) amounted to 24500 pM.

B3: TSC194 (huVL-VH#2 107-1A4 scFv-Fc-Cris7 scFv) (bispecific antibody)
chain: DIQMTQSPSAMSASVGDRVTITCRASKSISKYLAWFQQKPGKVPKLRIHSGSTLQSGVPSRFSGSGSGTEFTLTISSLQPEDFATYYCQQHIEYPWTFGQGTKVEIKRGGGGSGGGGSGGGGSQVQLVQSGAEVKKPGASVKVSCKASGYTFTDYYMHWVRQAPGQGLEWMGYFNPYNDYTRYAQKFQGRVTMTRDTSISTAYMELSSLRSDDTAVYYCARSDGYYDAMDYWGQGTTVTVSSSEPKSSDKTHTCPPCPAPEAAGAPSVFLFPPKPKDTLMISRTPEVTCVVVDVSHEDPEVKFNWYVDGVEVHNAKTKPREEQYNSTYRVVSVLTVLHQDWLNGKAYACAVSNKALPAPIEKTISKAKGQPREPQVYTLPPSRDELTKNQVSLTCLVKGFYPSDIAVEWESNGQPENNYKTTPPVLDSDGSFFLYSKLTVDKSRWQQGNVFSCSVMHEALHNHYTQKSLSLSPGQRHNNSSLNTGTQMAGHSPNSQVQLVQSGGGVVQPGRSLRLSCKASGYTFTRSTMHWVRQAPGKGLEWIGYINPSSAYTNYNQKFKDRFTISADKSKSTAFLQMDSLRPEDTGVYFCARPQVHYDYNGFPYWGQGTPVTVSSGGGGSGGGGSGGGGSAQDIQMTQSPSSLSASVGDRVTMTCSASSSVSYMNWYQQKPGKAPKRWIYDSSKLASGVPARFSGSGSGTDYTLTISSLQPEDFATYYCQQWSRNPPTFGGGTKLQITR
With B3, the “EC50 for RTCC” value in the test with CD3 [2] was determined as 2.8 pM.
